The target in this assay is T1, Bfd (Pseudomonas aeruginosa, UniProt Q9HY80).
T1 chain: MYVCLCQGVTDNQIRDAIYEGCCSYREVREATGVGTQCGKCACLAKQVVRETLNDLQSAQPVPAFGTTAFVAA
Nature of the assay: SPR.

B1: BfrB (protein)
chain: not shown
modifications: apo-BfrB (heme-free)
Turning to B1, the Kd was 3.1 µM.

The values are drawn from PMC6535718 (2019).
